A short description of this data set: VAS self-rated pain perception of bolus delivery and daily infusion. The class given is in vivo, human (T1DM patients). The settings on record: ID compared to SC infusion. The protocol:
Patients rated bolus-associated pain immediately after insulin delivery for both meals and again each evening at approximately 6 PM after completion of the morning dosing and sampling cycles to rate overall discomfort from the infusion process during the preceding 24 h. The visual analog scale (VAS) utilized a standard validated 10-cm scale anchored by “no pain” (score 0) and “severe pain” (score 10) without inclusion of additional numerical or verbal descriptors to avoid clustering of scores around intermediate points. Scores were measured as absolute distant from origin. Within 1 h prior to device removal, patients completed a non-validated user acceptability questionnaire consisting of a set of standard multiple choice closed-ended questions covering acceptability of sensations for infusion sets application and operation, set satisfaction, willingness to use the respective infusion set again, and set preference. Responses were restricted to a 5-point scale generally ranging from extreme agreement/satisfaction to extreme disagreement/satisfaction depending upon the question. […]
Pharmacokinetic parameters were derived from baseline corrected blood insulin data. […] PK and PD endpoints were analyzed using a linear mixed effects model (ANOVA) with sequence, application route, meal, and day as factors along with interactions. […]

Consider insulin aspart, for which the VAS self-rated pain result is “statistically greater for ID compared to SC infusion”.

The values above are taken from publication PMC4529466, “Intradermal insulin infusion achieves faster insulin action than subcutaneous infusion for 3-day wear” (Drug Delivery and Translational Research, 2015).
